Results from article doi:10.1101/625327.

Legend:
Assay in all cases: SPR
[1] = target: M/N60 (UniProt Q9UBB5)
[2] = target: M/N120 (UniProt Q9UBB5)
[3] = target: M/N20 (UniProt Q9UBB5)

Kd [1]: 3 nM
Kd [2]: 3 nM
Kd [3]: 3 nM
Substance: P15 (from UniProt Q86YP4 137-178) (domain or fragment)
